Assay results published in patent publication US20220177560A1 (Janssen / Centocor, published 2022).

Molecular target: T1, HU-3pE-beta-Amyloid (human)
T1 construct: also called the peptide
Experiment: SPR (per Example 5); antigen peptide not given

T1 sequence (P05067 674-699): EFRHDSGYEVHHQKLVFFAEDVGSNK

Kd	Binder
0.0117 nM	BAMB612 (antibody, human IgG1, kappa, V domains shown, HFA variant of BAMB31, human IgG1) VH: QVQLVQSGAEVKKPGASVKVSCKASGHVFTSYDMYWVRQSPGQGLEWIGYIDSDNGDTSYNQKFKGRVTLTVDTSTSTVYMELSSLRSEDTAVYYCAYYRYAMDYWGQGTLVTVSS VL: DVVMTQSPLSLPVTLGQPASISCKSSQSLLDSRAKTYLTWLQQRPGQSPRRLIYLVSKLDSGVPDRFSGSGSGTDFTLKISRVEAEDVGVYYCWQGTHFPYTFGGGTKLEIKR
0.0383 nM	BAMB630 (antibody, human IgG1, kappa, V domains shown, HFA variant of BAMB31, human IgG1) VH: QVQLVQSGAEVKKPGASVKVSCKASGHVFTSYDMYWVKQAPGQSLEWIGYIDSDNGDTSYNQKFKGKVTLTVDTSTSTVYMELSSLRSEDTAVYYCAYYRYAMDYWGQGTLVTVSS VL: DVVMTQSPLSLPVTLGQPASISCKSSQSLLDSRAKTYLTWLLQRPGQSPRRLIYLVSKLDSGVPDRFSGSGSGTDFTLKISRVEAEDVGVYYCWQGTHFPYTFGGGTKLEIKR
0.0182 nM	BAMB613 (antibody, human IgG1, kappa, V domains shown, HFA variant of BAMB31, human IgG1) VH: QVQLVQSGAEVKKPGASVKVSCKASGHVFTSYDMYWVRQAPGQGLEWIGYIDSDNGDTSYNQKFKGKVTLTVDTSTSTVYMELSSLRSEDTAVYYCAYYRYAMDYWGQGTLVTVSS VL: DVVMTQSPLSLPVTLGQPASISCKSSQSLLDSRAKTYLTWLQQRPGQSPRRLIYLVSKLDSGVPDRFSGSGSGTDFTLKISRVEAEDVGVYYCWQGTHFPYTFGGGTKLEIKR
1.52 nM	BAMB611 (antibody, human IgG1, kappa, V domains shown, Human framework adapted (HFA) variant of BAMB31, human IgG1) VH: QVQLVQSGAEVKKPGASVKVSCKASGHVFTSYDMYWVRQAPGQGLEWMGYIDSDNGDTSYNQKFKGRVTMTVDTSTSTVYMELSSLRSEDTAVYYCAYYRYAMDYWGQGTLVTVSS VL: DVVMTQSPLSLPVTLGQPASISCKSSQSLLDSNGKTYLTWFQQRPGQSPRRLIYLVSKLDSGVPDRFSGSGSGTDFTLKISRVEAEDVGVYYCWQGTHFPYTFGGGTKLEIKR
0.018 nM	BAMB631 (antibody, human IgG1, kappa, V domains shown, HFA variant of BAMB31, human IgG1) VH: QVQLVQSGAEVKKPGASVKVSCKASGHVFTSYDMYWVRQAPGQSLEWMGYIDSDNGDTSYNQKFKGRVTLTVDTSTSTVYMELSSLRSEDTAVYYCAYYRYAMDYWGQGTLVTVSS VL: DVVMTQSPLSLPVTLGQPASISCKSSQSLLDSRAKTYLTWLLQRPGQSPRRLIYLVSKLDSGVPDRFSGSGSGTDFTLKISRVEAEDVGVYYCWQGTHFPYTFGGGTKLEIKR
0.016 nM	BAMB614 (antibody, human IgG1, kappa, V domains shown, HFA variant of BAMB31, human IgG1) VH: QVQLVQSGAEVKKPGASVKVSCKASGHVFTSYDMYWVRQAPGQGLEWIGYIDSDNGDTSYNQKFKGRVTLTVDTSTSTVYMELSSLRSEDTAVYYCAYYRYAMDYWGQGTLVTVSS VL: DVVMTQSPLSLPVTLGQPASISCKSSQSLLDSRAKTYLTWLQQRPGQSPRRLIYLVSKLDSGVPDRFSGSGSGTDFTLKISRVEAEDVGVYYCWQGTHFPYTFGGGTKLEIKR
